Experiments:
Assay in all cases: split reporter (BiFC, NanoBiT); receptor-SmBiT and LgBiT-mini-G, LgBiT-mini-GΔα5 or LgBiT-β-arrestin transiently co-transfected in HEK293T; live cells 48 h after transfection; NanoBiT PPI system (Promega), luminescence normalised by the expression of both constructs; in the mutant and ΔHA panels the mini-GΔα5 signal was subtracted and results given as a percentage of the reference construct
[1] = biological target: ADGRL4-CTF1 S414A (human) (UniProt Q9HBW9)
[2] = biological target: ADGRL4-CTF1 I411A (human) (UniProt Q9HBW9)
[3] = biological target: ADGRL4-CTF1 F409A (human) (UniProt Q9HBW9)
[4] = biological target: ADGRL4-CTF1 H408A (human) (UniProt Q9HBW9)
[5] = biological target: ADGRL4-CTF1 L412A (human) (UniProt Q9HBW9)

With LgBiT-mini-Gq (mini-Gs/q version 70) the reduction of Gq activity, percent of wild-type CTF1 [1] was > 50%, the reduction of Gq activity, percent of wild-type CTF1 [2] was > 50% and the Gq activity, percent of wild-type CTF1 (% of wild-type CTF1) [3] was 12. The reduction of Gq activity, percent of wild-type CTF1 [4] was > 50% and the reduction of Gq activity, percent of wild-type CTF1 [5] was > 50%.
